# Measured values taken from PMC9778525.
# Experiments:
# [1] = target: N-terminus His-tagged annexin V (human) (UniProt P08758); test: high-speed atomic force microscopy (HS-AFM); 1 uM annexin V added to supported lipid bilayers (DOPC:DOPS:biotinyl-DOPE = 7:2:1) on mica; 10 mM HEPES-NaOH pH 7.0, 2 mM CaCl2, 150 mM NaCl; trimers and 2D crystal lattice (p6) on the membrane
# [2] = target: annexin V without any residual amino acids (human) (UniProt P08758); test: as above
stoichiometry N [1],stoichiometry N [2],Substance
3,,N-terminus His-tagged annexin V (from UniProt P08758 1-320) (natural protein)
,3,annexin V without any residual amino acids (from UniProt P08758 1-320) (natural protein)
